Assay results as given in paper PMC3877283, “Development of Novel Radiogallium-Labeled Bone Imaging Agents Using Oligo-Aspartic Acid Peptides as Carriers” (PLoS ONE, 2013).
Like-named read-outs stand apart in the source and are kept apart here. Marks after values point to notes of the source that are not given here. Peptide text beside a SMILES is read from it. * marks the point of attachment. DOTA = O=C(O)CN1CCN(CC(=O)O)CCN(CC(=O)*)CCN(CC(=O)O)CC1

Experiment: Biodistribution experiments in mice with pretreatment of alendronate (20 mg/kg)
Assay type: in vivo, ddY mice
Details: for Radioactivity in Bone (Femur): Bone (complete left femur); for Radioactivity in Stomach: Stomach (footnote b)
Description: Experiments with animals were conducted in strict accordance with the Guidelines for the Care and Use of Laboratory Animals of Kanazawa University. The animal experimental protocols used were approved by the Committee on Animal Experimentation of Kanazawa University (Permit Number: AP-132633). Biodistribution experiments were performed after an intravenous administration of each diluted tracer solution (37 kBq/100 µL) to 6-week-old male ddY mice (27–32 g, Japan SLC, Inc., Hamamatsu, Japan). To investigate the effect of an excess amount of bisphosphonate on biodistribution, alendronate (20 mg/kg) was intravenously administered to mice 1 minute before the intravenous injection of ^67Ga-DOTA-(Asp)14 or ^67Ga-DOTA-Bn-SCN-HBP. Four to six mice each were sacrificed by decapitation at 10, 60, and 180 minutes post-injection. Tissues of interest were removed and weighed. Complete left femurs were isolated as representative bone samples, radioactivity was determined using an auto well gamma counter, and counts were corrected for background radiation and physical decay during counting.

[1] = 10 min after i.v. administration, alendronate 20 mg/kg i.v. 1 minute before, male ddY mice, mean (SD) for five or six animals
[2] = 60 min (1 h) after i.v. administration, alendronate 20 mg/kg i.v. 1 minute before, male ddY mice, mean (SD) for five or six animals
[3] = 180 min (3 h) after i.v. administration, alendronate 20 mg/kg i.v. 1 minute before, male ddY mice, mean (SD) for five or six animals

In the case of O=C(O)C[C@H](NC(=O)[C@H](CC(=O)O)NC(=O)[C@H](CC(=O)O)NC(=O)[C@H](CC(=O)O)NC(=O)[C@H](CC(=O)O)NC(=O)[C@H](CC(=O)O)NC(=O)[C@H](CC(=O)O)NC(=O)[C@H](CC(=O)O)NC(=O)[C@H](CC(=O)O)NC(=O)[C@H](CC(=O)O)NC(=O)[C@H](CC(=O)O)NC(=O)[C@H](CC(=O)O)NC(=O)[C@H](CC(=O)O)NC(=O)[C@H](CC(=O)O)NC(=O)CN1CCN(CC(=O)O)CCN(CC(=O)O)CCN(CC(=O)O)CC1)C(=O)O [67Ga-DOTA-(Asp)14, metal not drawn] ({DOTA}-DDDDDDDDDDDDDD-OH), the “F/B ratio (Femur:blood ratio)” value [1] is reported as 4.50 (0.63) ^**, the “F/B ratio (Femur:blood ratio)” value [2] is reported as 52.96 (17.28) ^** and the “F/B ratio (Femur:blood ratio)” value [3] is reported as 229.73 (67.08) ^**. The “Radioactivity in Blood” value (Blood, 60 min (1 h) after i.v. administration, alendronate 20 mg/kg i.v. 1 minute before, male ddY mice, mean (SD) for five or six animals) was 0.23 (0.05) ^** % injected dose, the “Radioactivity in Blood” value (Blood, 180 min (3 h) after i.v. administration, alendronate 20 mg/kg i.v. 1 minute before, male ddY mice, mean (SD) for five or six animals) was 0.06 (0.02) ^** % injected dose and the “Radioactivity in Bone (Femur)” value [1] was 8.59 (0.55) ^** % injected dose. The “Radioactivity in Bone (Femur)” value [2] was 11.81 (1.95) % injected dose, the “Radioactivity in Bone (Femur)” value [3] was 12.88 (2.30) % injected dose and the “Radioactivity in Brain” value [1] was 0.05 (0.01) % injected dose. For the same molecule, the “Radioactivity in Brain” value [2] was 0.02 (0.00) ^* % injected dose, the “Radioactivity in Brain” value [3] was 0.01 (0.00) % injected dose and the “Radioactivity in Heart” value (Heart, 60 min (1 h) after i.v. administration, alendronate 20 mg/kg i.v. 1 minute before, male ddY mice, mean (SD) for five or six animals) was 0.24 (0.08) ^** % injected dose. For the same molecule, the “Radioactivity in Heart” value (Heart, 180 min (3 h) after i.v. administration, alendronate 20 mg/kg i.v. 1 minute before, male ddY mice, mean (SD) for five or six animals) was 0.15 (0.07) ^** % injected dose, the “Radioactivity in Kidney” value (Kidney, 60 min (1 h) after i.v. administration, alendronate 20 mg/kg i.v. 1 minute before, male ddY mice, mean (SD) for five or six animals) was 3.28 (0.82) ^** % injected dose and the “Radioactivity in Kidney” value (Kidney, 180 min (3 h) after i.v. administration, alendronate 20 mg/kg i.v. 1 minute before, male ddY mice, mean (SD) for five or six animals) was 3.34 (0.92) ^** % injected dose. The “Radioactivity in Large-intestine” value [1] was 0.40 (0.08) ^* % injected dose, the “Radioactivity in Large-intestine” value [2] was 0.08 (0.01) ^** % injected dose and the “Radioactivity in Large-intestine” value [3] was 0.33 (0.07) ^** % injected dose. The “Radioactivity in Liver” value (Liver, 60 min (1 h) after i.v. administration, alendronate 20 mg/kg i.v. 1 minute before, male ddY mice, mean (SD) for five or six animals) was 1.39 (0.29) ^** % injected dose, the “Radioactivity in Liver” value (Liver, 180 min (3 h) after i.v. administration, alendronate 20 mg/kg i.v. 1 minute before, male ddY mice, mean (SD) for five or six animals) was 1.27 (0.72) ^** % injected dose and the “Radioactivity in Lung” value (Lung, 180 min (3 h) after i.v. administration, alendronate 20 mg/kg i.v. 1 minute before, male ddY mice, mean (SD) for five or six animals) was 2.49 (1.78) ^* % injected dose. For the same molecule, the “Radioactivity in Muscle” value (Muscle, 60 min (1 h) after i.v. administration, alendronate 20 mg/kg i.v. 1 minute before, male ddY mice, mean (SD) for five or six animals) was 0.11 (0.07) % injected dose, the “Radioactivity in Muscle” value (Muscle, 180 min (3 h) after i.v. administration, alendronate 20 mg/kg i.v. 1 minute before, male ddY mice, mean (SD) for five or six animals) was 0.05 (0.02) % injected dose and the “Radioactivity in Pancreas” value [1] was 0.72 (0.12) ^** % injected dose. For the same molecule, the “Radioactivity in Pancreas” value [2] was 0.15 (0.02) ^** % injected dose, the “Radioactivity in Pancreas” value [3] was 0.12 (0.07) ^* % injected dose and the “Radioactivity in Small-intestine” value [1] was 0.53 (0.09) ^* % injected dose. The “Radioactivity in Small-intestine” value [2] was 0.22 (0.05) ^** % injected dose, the “Radioactivity in Small-intestine” value [3] was 0.29 (0.12) ^** % injected dose and the “Radioactivity in Spleen” value (Spleen, 60 min (1 h) after i.v. administration, alendronate 20 mg/kg i.v. 1 minute before, male ddY mice, mean (SD) for five or six animals) was 1.03 (0.35) ^** % injected dose. For the same molecule, the “Radioactivity in Spleen” value (Spleen, 180 min (3 h) after i.v. administration, alendronate 20 mg/kg i.v. 1 minute before, male ddY mice, mean (SD) for five or six animals) was 0.89 (0.59) ^* % injected dose, the “Radioactivity in Stomach” value [1] was 0.36 (0.09) ^* % injected dose and the “Radioactivity in Stomach” value [2] was 0.15 (0.12) % injected dose. For the same molecule, the “Radioactivity in Stomach” value [3] was 0.11 (0.04) ^** % injected dose, the “effect of alendronate pretreatment on accumulation in bone (in words)” value (alendronate 20 mg/kg i.v. 1 minute before tracer, mice) was “comparatively little effect” and the tissue uptake dose at 10 min (male, ddY, mouse, in vivo, iv, total radioactivity, Blood, 10 min after i.v. administration, alendronate 20 mg/kg i.v. 1 minute before, male ddY mice, mean (SD) for five or six animals, read-out: Radioactivity in Blood) was 1.94 %ID. The tissue uptake dose at 10 min (male, ddY, mouse, in vivo, iv, total radioactivity, Heart, 10 min after i.v. administration, alendronate 20 mg/kg i.v. 1 minute before, male ddY mice, mean (SD) for five or six animals, read-out: Radioactivity in Heart) was 0.88 %ID, the tissue uptake dose at 10 min (male, ddY, mouse, in vivo, iv, total radioactivity, Kidney, 10 min after i.v. administration, alendronate 20 mg/kg i.v. 1 minute before, male ddY mice, mean (SD) for five or six animals, read-out: Radioactivity in Kidney) was 16.7 %ID and the tissue uptake dose at 10 min (male, ddY, mouse, in vivo, iv, total radioactivity, Liver, 10 min after i.v. administration, alendronate 20 mg/kg i.v. 1 minute before, male ddY mice, mean (SD) for five or six animals, read-out: Radioactivity in Liver) was 2.2 %ID. The tissue uptake dose at 10 min (male, ddY, mouse, in vivo, iv, total radioactivity, Lung, 10 min after i.v. administration, alendronate 20 mg/kg i.v. 1 minute before, male ddY mice, mean (SD) for five or six animals, read-out: Radioactivity in Lung) was 5.86 %ID, the tissue uptake dose at 1 h (male, ddY, mouse, in vivo, iv, total radioactivity, Lung, 60 min (1 h) after i.v. administration, alendronate 20 mg/kg i.v. 1 minute before, male ddY mice, mean (SD) for five or six animals) was 4.07 %ID and the tissue uptake dose at 10 min (male, ddY, mouse, in vivo, iv, total radioactivity, Muscle, 10 min after i.v. administration, alendronate 20 mg/kg i.v. 1 minute before, male ddY mice, mean (SD) for five or six animals, read-out: Radioactivity in Muscle) was 0.53 %ID. The tissue uptake dose at 10 min (male, ddY, mouse, in vivo, iv, total radioactivity, Spleen, 10 min after i.v. administration, alendronate 20 mg/kg i.v. 1 minute before, male ddY mice, mean (SD) for five or six animals, read-out: Radioactivity in Spleen) was 1.86 %ID.
